Key:
Format in all cases: cell-based
PAR-2 = biological target: T1, PAR-2 (Homo sapiens, UniProt P55085); experiment: Calcium influx in PAR-2-expressing insect cells; settings: AST 2 units/mL; trypsin, thrombin 0.1 to 10 units/mL; SFLLRNamide, SLIGRL 10 to 100 μM
T1 construct: expressed in transfected cells; host or cells: Sf9 insect cells infected with recombinant baculovirus VL-PAR (pVL1393)
T1 sequence (P55085 26-397): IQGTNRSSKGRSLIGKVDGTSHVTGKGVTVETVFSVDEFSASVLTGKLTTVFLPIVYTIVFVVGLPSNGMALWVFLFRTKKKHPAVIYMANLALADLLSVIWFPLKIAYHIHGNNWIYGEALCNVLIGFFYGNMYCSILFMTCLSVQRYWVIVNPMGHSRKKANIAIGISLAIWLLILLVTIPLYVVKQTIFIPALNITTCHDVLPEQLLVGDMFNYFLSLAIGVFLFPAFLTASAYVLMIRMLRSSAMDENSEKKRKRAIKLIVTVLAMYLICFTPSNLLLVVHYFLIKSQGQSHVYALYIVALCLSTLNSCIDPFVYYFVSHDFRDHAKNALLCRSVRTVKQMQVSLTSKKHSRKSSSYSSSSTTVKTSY
Procedure: (§1) The above-obtained recombinant baculovirus VL-PAR for expressing the PAR was used to infect 1.0×10^7 Sf9 cells sowed on a 75 cm^2 flask at an MOI=2, and was then left and stationally cultured at 27° C. for 40 hours. After the culture, the infected cells were recovered and then subjected to a calcium influx experiment to-confirm the function of the PAR.
(§2) The recovered infected cells (about 5×10^6 cells) were once washed with HEPES-Tyrode buffer solution-Ca^2+ (−) pH 7.4, and then suspended in 5 mL of HEPES-Tyrode buffer solution (containing Fura2-AM, 1 μg/mL) to load the Fura2-AM on the cells at 27° C. for 30 minutes. The suspension was centrifuged at 800 rpm at room temperature for 5 minutes to recover the cells. The cells were twice washed with HEPES-Tyrode buffer solution-Ca^2+ (−) pH 7.4 and then resuspended in 5 mL of HEPES-Tyrode buffer solution-Ca^2+ (−) pH 7.4. The cell suspension was mixed with 5 μL of 1M CaCl2 to give a final concentration of 1 mM CaCl2, and then incubated in a shaded state at room temperature for 5 minutes. The prepared Fura2-AM-loaded infected cells were dispensed into a 96 well plate in a volume of 100 μL/well, further subjected to the dispensation of HEPES-Tyrode buffer solution-C^2+ (+) pH 7.4 in a volume of 80 μL/well, and then assayed with a Fluorescence Drug Screening System (made by Hamamatsu Photonics Co.). […]

PAR-4 = biological target: T2, PAR-4 (Homo sapiens, UniProt Q96RI0); experiment: Calcium influx in PAR-4-expressing insect cells; settings: AST 2 units/ml; trypsin, thrombin 0.1 to 10 units/mL
T2 construct: expressed in transfected cells; host or cells: Sf9 insect cells infected with recombinant baculovirus VL-PAR (pVL1393)
T2 sequence (Q96RI0 18-385): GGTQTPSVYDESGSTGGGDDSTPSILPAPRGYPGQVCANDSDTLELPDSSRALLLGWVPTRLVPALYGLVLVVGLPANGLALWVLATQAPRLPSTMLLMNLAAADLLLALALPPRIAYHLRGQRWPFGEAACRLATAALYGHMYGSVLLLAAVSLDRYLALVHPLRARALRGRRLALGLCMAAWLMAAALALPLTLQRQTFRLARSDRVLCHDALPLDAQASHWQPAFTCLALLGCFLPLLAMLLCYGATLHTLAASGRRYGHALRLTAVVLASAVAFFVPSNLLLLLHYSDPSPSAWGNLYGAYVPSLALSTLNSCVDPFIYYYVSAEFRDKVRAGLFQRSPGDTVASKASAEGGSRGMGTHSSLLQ
Procedure: as §1, §2

[1] = tested on: normal human airway epithelial cells; experiment: Calcium influx in normal human airway epithelial cells; settings: AST 2 units/mL; trypsin 10 to 100 units/mL; SFLLRNamide 100 μM
Procedure: The Ca^2+ influx due to the AST was examined with confluent normal epithelial cells adhered to three 10 cm dishes (purchased from BioWhittaker Corp.). The cells were peeled with a 10 mM EDTA/HEPES-Tyrode buffer solution for 10 minutes, recovered by a centrifugal treatment at 800 rpm at room temperature for 5 minutes, and then resuspended in 5 mL of HEPES-Tyrode buffer solution-Ca^2+ (−) pH 7.4. The recovered cells (about 1.2×10^6 cells) were suspended in 5 mL of HEPES-Tyrode buffer solution (1 μg/mL, containing Fura2-AM) to load the Fura2-AM to the cells at 37° C. for one hour. The cells were recovered by a centrifugal treatment at 800 rpm at room temperature for 5 minutes, twice washed with HEPES-Tyrode buffer solution-Ca^2+ (−) pH 7.4, and then resuspended in […] of HEPES-Tyrode buffer solution-Ca^2+ (−) pH 7.4. The cell suspension was mixed with 5 μL of 1M CaCl2 to give a final concentration of 1 mM CaCl2, and then incubated in a shaded state at room temperature for 5 minutes. The prepared Fura2-AM-loaded infected cells were dispensed into a 96 well plate in a volume of 100 μL/well, further subjected to the dispensation of HEPES-Tyrode buffer solution-Ca^2+ (+) pH 7.4 in a volume of 80 μL/well, and then assayed with Fluorescence Drug Screening System (Hamamatsu Photonics Co.). […]

PAR-1 = biological target: T3, PAR-1 (Homo sapiens, UniProt P25116); experiment: Calcium influx in PAR-1-expressing insect cells; settings: AST 2 units/mL; trypsin, thrombin 0.1 to 10 units/mL; SFLLRNamide 10 to 100 μM
T3 construct: expressed in transfected cells; host or cells: Sf9 insect cells infected with recombinant baculovirus VL-PAR (pVL1393)
T3 sequence (P25116 22-425): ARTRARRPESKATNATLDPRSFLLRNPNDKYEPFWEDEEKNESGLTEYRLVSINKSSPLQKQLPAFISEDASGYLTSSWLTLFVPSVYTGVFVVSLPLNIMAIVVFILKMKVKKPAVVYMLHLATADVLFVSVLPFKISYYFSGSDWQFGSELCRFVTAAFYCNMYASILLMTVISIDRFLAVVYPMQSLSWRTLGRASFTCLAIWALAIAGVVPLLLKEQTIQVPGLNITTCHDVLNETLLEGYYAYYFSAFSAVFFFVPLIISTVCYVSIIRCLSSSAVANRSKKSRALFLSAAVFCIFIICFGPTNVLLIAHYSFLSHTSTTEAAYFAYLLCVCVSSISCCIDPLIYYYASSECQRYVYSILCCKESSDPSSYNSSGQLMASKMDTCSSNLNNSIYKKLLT
Procedure: The recovered infected cells (about 5×10^6 cells) were once washed with HEPES-Tyrode buffer solution-Ca^2+ (−) pH 7.4, and then suspended in 5 mL of HEPES-Tyrode buffer solution (containing Fura2-AM, 1 μg/mL) to load the Fura2-AM on the cells at 27° C. for 30 minutes. The suspension was centrifuged at 800 rpm at room temperature for 5 minutes to recover the cells. The cells were twice washed with HEPES-Tyrode buffer solution-Ca^2+ (−) pH 7.4 and then resuspended in 5 mL of HEPES-Tyrode buffer solution-Ca^2+ (−) pH 7.4. The cell suspension was mixed with 5 μL of 1M CaCl2 to give a final concentration of 1 mM CaCl2, and then incubated in a shaded state at room temperature for 5 minutes. The prepared Fura2-AM-loaded infected cells were dispensed into a 96 well plate in a volume of 100 μL/well, further subjected to the dispensation of HEPES-Tyrode buffer solution-C^2+ (+) pH 7.4 in a volume of 80 μL/well, and then assayed with a Fluorescence Drug Screening System (made by Hamamatsu Photonics Co.). Namely, [intensity of 500 nm fluorescent light due to 340 nm exciting light]/[intensity of 500 nm fluorescent light due to 380 nm exciting light] (reflecting the concentration of calcium in the cells) was assayed.

BEAS-2B = experiment: Calcium influx in airway epithelial cell strain BEAS-2B; settings: AST 2 units/mL; trypsin 10 to 100 units/mL; SFLLRNamide 100 μM
Procedure: The Ca^2+ influx due to the AST was examined with respect to an airway epithelial cell strain BEAS-2B. The confluent cells adhered to six 10 cm dishes were used. The cells were peeled with a 10 mM EDTA/HEPES-Tyrode buffer solution for 10 minutes, recovered by a centrifugal treatment at 1,500 rpm at room temperature for 5 minutes, and then resuspended in 10 mL of HEPES-Tyrode buffer solution-Ca^2+ (−) pH 7.4. The recovered cells (about 1.1×10^7 cells) were suspended in 11 mL of HEPES-Tyrode buffer solution (1 μg/mL, containing Fura2-AM) to load the Fura2-AM at 37° C. for 30 minutes. The cells were recovered by a centrifugal treatment at 1,500 rpm at room temperature for 5 minutes, twice washed with HEPES-Tyrode buffer solution-Ca^2+ (−) pH 7.4, and then resuspended in 11 mL of HEPES-Tyrode buffer solution-Ca^2+ (−) pH 7.4. The cell suspension was mixed with […] of 1M CaCl2 to give a final concentration of 1 mM CaCl2, and then incubated in a shaded state at room temperature for 5 minutes. The prepared Fura2-AM-loaded infected cells were dispensed into a 96 well plate in a volume of 100 μL/well, further subjected to the dispensation of HEPES-Tyrode buffer solution-Ca^2+ (+) pH 7.4 in a volume of 80 μL/well, and then assayed with Fluorescence Drug Screening System (Hamamatsu Photonics Co.). […]

Measured: Ca2+ influx

B1: trypsin: trypsin originated from bovine pancreas (protein)
chain: IVGGYTCGANTVPYQVSLNSGYHFCGGSLINSQWVVSAAHCYKSGIQVRLGEDNINVVEGNEQFISASKSIVHPSYNSNTLNNDIMLIKLKSAASLNSRVASISLPTSCASAGTQCLISGWGNTKSSGTSYPDVLKCLKAPILSDSSCKSAYPGQITSNMFCAGYLEGGKDSCQGDSGGPVVCSGKLQGIVSWGSGCAQKNKPGVYTKVCNYVSWIKQTIASN
observed: all assays above
